Experimental findings from publication PMC9478924 are described below.

Holding throughout (assay): SPR
(In general: SPR reads the build-up and loss of mass on a sensor chip optically.)

Assay [1] has as its target CHI-1R (not stated | Rhipicephallus pulchellus (zebra tick or yellow back tick)).
A further assay concerns the target CHI-1P.
Another assay addresses T1, EVA-4, P0C8E9.
T1 chain: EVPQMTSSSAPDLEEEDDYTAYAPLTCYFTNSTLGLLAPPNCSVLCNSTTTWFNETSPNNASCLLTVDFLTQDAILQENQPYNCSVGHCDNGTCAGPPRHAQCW
Particulars: remark: other sources report otherwise.

Assay [2] has as its target CHI-PR (not stated | Rhipicephallus pulchellus (zebra tick or yellow back tick)).
Assay [3] addresses EVA-RPU02 (Rhipicephallus pulchellus (zebra tick or yellow back tick)).
In the next assay the target is T2, EVA-P974, A0A023.
T2 chain: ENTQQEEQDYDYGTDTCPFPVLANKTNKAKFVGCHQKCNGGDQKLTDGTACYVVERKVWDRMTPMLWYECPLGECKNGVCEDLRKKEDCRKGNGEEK
Particulars: remark: other sources report otherwise.

The target in another assay is CHI-P1.
For assay [4], the target named is CHI-R1 (Rhipicephallus pulchellus (zebra tick or yellow back tick) | not stated).

What is called Kd is the concentration at which binding is half-saturated. A low value points to a tighter complex. In general, koff refers to the rate constant with which the complex falls apart. The low end stands for slow dissociation, the high end for fast dissociation. Broadly, the kon is a measure of how fast the partners come together.

B1: CCL16 (ligand)
chain: QPKVPEWVNTPSTCCLKYYEKVLPRRLVVGYRKALNCHLPAIIFVTKRNREVCTNPNDDWVQEYIKDPNLPLLPTRNLSTVKIITAKNGQPQLLNSQ
Turning to B1, the Kd in assay [1] is above 500 nM; with CHI-1P it was 182 nM.

B2: CCL4, P13236 24-92 (ligand)
chain: APMGSDPPTACCFSYTARKLPRNFVVDYYETSSLCSQPAVVFQTKRSKQVCADPSESWVQEYVYDLELN
modifications: here or on the partner: biotin on the Avi-tag (Bir-A ligase)
On to B2, for which the Kd with EVA-4, P0C8E9 was determined as 158 nM.

B3: CCL18 (ligand)
chain: AQVGTNKELCCLVYTSWQIPQKFIVDYSETSPQCPKPGVILLTKRGRQICADPNKKWVQKYISDLKLNA
Turning to B3, the dissociation constant (Kd) in assay [2] was 315 nM; in assay [3] it was 651 nM; in assay [1], above 500 nM; in the assay with CHI-1P, 206 nM. Moreover, in assay [3], the koff came to 0.35 s⁻¹. For the same molecule, the association rate constant (kon) in assay [3] is 490000 M⁻¹ s⁻¹.

B4: CCL1 (ligand)
chain: KSMQVPFSRCCFSFAEQEIPLRAILCYRNTSSICSNEGLIFKLKRGKEACALDTVGWVQRHRKMLRHCPSKRK
B4: the dissociation constant Kd in the assay with CHI-1P came out at 191 nM.

B5: CCL22 (ligand)
chain: GPYGANMEDSVCCRDYVRYRLPLRVVKHFYWTSDSCPRPGVVLLTFRDKEICADPRVPWVKMILNKLSQ
Turning to B5, the dissociation constant Kd is above 500 nM in assay [1] and 25 nM in the assay with CHI-1P.

B6: CCL15 (ligand)
chain: QFTNDAETELMMSKLPLENPVVLNSFHFAADCCTSYISQSIPCSLMKSYFETSSECSKPGVIFLTKKGRQVCAKPSGPGVQDCMKKLKPYSI
As for B6, in assay [3], the Kd amounted to 503 nM, the koff is 0.069 s⁻¹ and the kon is 140000 M⁻¹ s⁻¹.

B7: CCL15, Q16663 22-113 (ligand)
chain: B6 chain
modifications: here or on the partner: biotin on the Avi-tag (Bir-A ligase)
B7 registered an equilibrium dissociation constant (Kd) in the assay with EVA-P974, A0A023 of 299 nM.

B8: CCL14 (ligand)
chain: TKTESSSRGPYHPSECCFTYTTYKIPRQRIMDYYETNSQCSKPGIVFITKRGHSVCTNPSDKWVQDYIKDMKEN
Take B8: the dissociation constant (Kd) with CHI-P1 stood at 79 nM; in assay [4], 134 nM; in assay [3], 32.4 nM; in assay [1], 60 nM; with CHI-1P, 149 nM. Further, the koff in assay [3] worked out at 0.024 s⁻¹. The kon in assay [3] amounted to 580000 M⁻¹ s⁻¹.
